According to the RNAGym collection of RNA variant scans (doi:10.7554/elife.80360):

B1: Hairpin Ribozyme (parent)
chain: GUCCUCUUUCACGUGCGCGUGAAAGAGAGAAGUGAACCAGAGAAACACACGUUGUGGUAUAUUACCUGGUA

Variants of: B1
Test: self-cleavage, relative activity (ratio to wild type); higher = more cleavage; co-transcriptional

Variant	self-cleavage
U52G A61G	0.163
U52G A61U	0.0725
U52C G69A	0.416
U52G G69U	0.27
G56A G57U	0.176
U52G A71U	0.572
U58A	0.742
U52C U58C	0.755
U53C G56U	0.196
G57C U60A	0.14
G57C U60G	0.178
G51C G68U	0.227
U55C U62A	0.106
U55C U62C	0.315
U53C G57A	0.326
U53C G57C	0.244
U55A U67A	0.219
U55A U67G	0.27
U53A A61C	0.178
U53A A61G	0.0972
G56U A64G	0.0832
U52A A71U	0.915
U52A A71G	1.12
U53G G57C	0.202

Variant	self-cleavage
U53C C65G	0.236
U53C C65A	1.06
G54U U63C	0.214
G56A C66A	0.0948
U53G G69C	0.316
U52G C65G	0.266
G56C U70G	0.0624
U55A A61C	0.104
U55G U62G	0
G51C U63C	0.1
G51C U58G	0.433
G51C U58C	0.905
G51C U55A	0.19
G51U U67C	0.299
G56A A59C	0.169
G54U U58C	0.713
G54U U58G	0.401
G54C U60C	0.47
G54C U60A	0.272
U53A C66A	0.205
G51C A64U	0.0968
U55C G56C	0.114
U55C G56A	0.0854
G54A U58G	0.178

Variant	self-cleavage
G54A U58C	0.635
G57U U62A	0.0927
G56U A71G	0.127
G51C C65A	0.857
G51C C65U	0.296
G51U A61U	0.25
G51U A61G	0.112
G57C U63A	0.165
U53C U67C	0.279
U53C U67G	0.462
U53C U67A	0.28
G51C U67G	0.164
G51C U67C	0.182
G56C G69U	0.313
G56C G69C	0.12
U55C U60C	0.4
U53A U70A	0.987
U53A U70C	0.951
U53A U70G	0.987
U55A G68C	0.098
U53G C66G	0.152
U53G C66U	0.552
U52A C66A	0.398
U52C U55G	0.301

Variant	self-cleavage
U55A A71U	0.18
G56A A61C	0.112
G56A A61G	0.2
U53C U62C	0.347
G51C A61U	0.196
G51U A64C	0.188
G54A A64C	0.152
G54A A64U	0.114
G54A A64G	0.403
U53G A64C	0.0581
U58A A59G	0.122
G54C U55G	0.25
G56A A71U	0.142
G51C U62C	0.239
U53G U58G	0.405
U53G U58C	0.987
U53G U62G	0.315
G56U U63C	0.169
G54A A59C	0.307
G57U A61G	0.296
G51U A59G	0.138
G51U A59U	0.0798
G54U G68U	0.302
G54A G69A	0.137

Variant	self-cleavage
G54C G56C	0.286
U53G U55G	0.327
U52A C65A	1.06
U55A U70A	0.181
G54U A59U	0.178
G57U A59C	0.188
G57U A59G	0.231
G57A U70C	0.274
U52G U58G	0.498
U53C C66U	0.69
U53C C66A	0.249
U53G U70G	0.848
U53A G56A	0.0996
U53A G56C	0.208
U52A G69C	0.268
G57U U58G	0.0777
G57U U58C	0.278
U53G C65A	0.641
G51C G69U	0.224
G51C G69A	0.336
U55G A64G	0.266
U52G U70G	0.933
G51U A71C	1.46
G51U G54C	0.135

Variant	self-cleavage
U52A A61G	0.22
U52A A61U	0.094
G56U G69C	0.124
G56U G69U	0.207
G56U G69A	0.114
G57A A59C	0.142
G57A A59G	0.171
U53A U55C	0.256
U53A U55G	0.389
U52C G54U	0.327
U52C G54C	0.0624
U52A U53C	1.32
G56C G68C	0.236
G51C U52G	0.469
G51C U52A	0.761
G56A C65U	0.104
G51C G56A	0.197
G57C G69C	0.142
G57C G69A	0.135
U52C C66A	0.279
U55G G69U	0.25
U53A U67C	0.279
G57C A61C	0.236
G56A U63C	0.286

Variant	self-cleavage
G56A U63G	0.0781
G57A A64C	0.118
G57A A64G	0.131
U55A U60A	0.245
U55A U60G	0.33
G56C C65G	0.0604
G56C C65U	0.16
U52C U63A	0.206
U52C U63C	0.226
U55G C66G	0.251
U52G A59U	0.177
U55C A61U	0.281
U55A C65U	0.21
G57A G69A	0.122
G54U G56U	0.203
G54C A64G	0.18
U53C G69A	0.607
U53C G69C	0.43
U53C G54A	0.418
U53G U60A	0.44
U53G U60C	1.12
G54A U55C	0.502
U55G G56C	0.107
U55G G56U	0.211

Variant	self-cleavage
U58A A71U	0.391
U58A A71C	1.19
G51U C66G	0.2
U52G A64G	0.301
U52G A64C	0.0463
G56U U58C	0.0906
U53C U58A	0.709
U53A A64G	0.696
U53A A64C	0.122
U53A G69C	0.19
U53A G69U	0.26
U55G A61G	0.0963
G54C U70C	0.146
G57C A59U	0.159
G57C A59G	0.244
G57U U67C	0.116
G57U U67A	0.166
U55G U63C	0.0583
U53A U58G	0.603
U53G G54A	0.569
G57A	0.183
G57C	0.166
G57U	0.273
G51U U60A	1.11

Variant	self-cleavage
U53G A59U	0.119
G56C A64G	0.148
G56C A64C	0.104
G54A G68C	0.208
U58A C65U	0.203
U58A C65A	0.503
G51U U62G	0.129
U52C U70A	1.22
U52G U63C	0.0944
U52A A59G	0.159
U52A A59C	0.245
U55C G68A	0.166
U55G G68U	0.139
G54C G69U	0.113
G56U G68A	0.183
G56U G68C	0.157
U53C U60C	1.5
G57U U60A	0.114
G57U U60C	0.246
U55C U67G	0.113
U55C U67A	0.177
U55G U67G	0.233
U55G G57A	0.0886
G57A A61U	0.143

Variant	self-cleavage
G57A A61C	0.155
G57A A61G	0.169
U55C U58A	0.257
G51U G57A	0.122
G56U U67A	0.23
G56U U67C	0.111
G56U U67G	0.12
U52A U63G	0.121
G54A C65U	0.102
U58A G68C	0.194
G51U U63C	0.136
G57U C65G	0.134
U55G C65U	0.0906
U55G C65G	0.256
U52A U62A	0.24
G54C C66A	0.169
U52C U62C	0.248
G51U G69C	0.519
U53G G68U	0.187
U53G G68C	0.18
G57A U63A	0.131
G56C A59C	0.154
G56C A59G	0.205
G54U U60G	0.29

Variant	self-cleavage
G54U U60A	0.252
U55C G57A	0.11
G54A U67G	0.157
U55C A71G	0.388
G56U C66G	0.22
G56U C66U	0.0775
G51C A71U	0.722
G57A U60A	0.152
G51C G54C	0.215
G51C G54U	0.404
U55G U58C	0.651
G51C G57A	0.147
G51C G57U	0.204
U52C U67A	0.178
U55A A64G	0.195
G56C A61C	0.109
G56C U62G	0.129
G54A U62C	0.195
G56A G68U	0.146
G56A G68C	0.0908
U55A U62A	0.104
U55A U62C	0.229
U58A A64G	0.247
U53A A71U	0.706

Variant	self-cleavage
G54A C66G	0.113
U55C	0.25
U55A	0.258
U55G	0.297
G57C C66G	0.113
U52G C66A	0.189
U52G U55C	0.193
U52G U55A	0.135
U52G U55G	0.398
G57A U62G	0.273
G57U U63A	0.146
U52A U67A	0.307
U52A U67C	0.239
U55A U63G	0.142
U55A G69C	0.217
G54A A61G	0.397
G54A A61C	0.192
G56A G69A	0.148
U55G U60G	0.185
U55G U60A	0.0917
U53G U67G	0.119
U53G U67A	0.182
U53G U67C	0.136
G57C U67G	0.123

Variant	self-cleavage
G57C U67C	0.114
U55C A59C	0.0877
U55C A59G	0.0716
G56A U70G	0.254
U55C U63G	0.119
U55C U63A	0.18
G51U G68U	0.318
U55G A59U	0.156
G54A A71C	0.977
G54A U63G	0.172
G54A G56A	0.0848
G54A G56U	0.104
U52G U67C	0.203
G51U U55G	0.222
G54U C65U	0.171
U55A G57U	0.146
G56U U70A	0.145
G56U U70C	0.271
U53C A71U	0.82
G57U A64U	0.173
G57U A64G	0.202
G57U A64C	0.139
U55C C65G	0.194
G51U G56C	0.201

Variant	self-cleavage
G56U A59C	0.135
G56U A59U	0.171
U53C A61C	0.142
U53G A61U	0.186
U55C G69A	0.166
U55C G69U	0.159
U55C G69C	0.183
G57U A71C	0.738
G54C A59G	0.0783
G54C A59U	0.18
U53A U60G	0.684
U52G G56C	0.0868
G57C G68U	0.172
G57C A64U	0.095
G54U U67C	0.106
U58A C66U	0.335
U55G A71U	0.209
U52G U62A	0.187
G54C U67A	0.167
G57C C65U	0.192
G57U U70G	0.225
G56C A71G	0.28
